Data reported in the RNAGym collection of RNA variant scans (doi:10.7554/elife.90254).

B1: LINE1-full (parent)
chain: UACGUAGGUGGUUUUCCCCUGAUAGUGCUAAGGGGGCCUGGAAGUUUGGACUGGGCAGAGCUCAACACAGCGUGGCAAAGUGGCUGUGGCUAGACUGCCUCUCUGGAUUCCUCGUCACUCAGCAGGGCAUCUCUGAGAGAAAUGCC

Variants of: B1
Assay: self-cleavage, relative activity (ratio to wild type); higher = more cleavage; in vitro, sequencing; the parent is a self-cleaving ribozyme

Variant	self-cleavage
UACGUGGGUGGUUUUCCCCUGAUAGUGCUAGGGGGGCCUGGAAGUUUGGACUGGGCAGAGCUCAACACAGCGUGGCAAAGUGGCUGUGGCUAGACUGCCUCUCUGGAUUCCUCGUCACUCAGCAGGGCAUCUCUGAGAGAAAUGCC	0.66
UACGUGGGUGGUUUUCCCCUGAUAGUGCUAAGGGGGCCUGGAAGUUUGGACUGGGCAGAGCUCAACACAGCGUGGCAAAGUGGCUGUGGCUAGACUGCCUCUCUGGAUUCCUCGUCACUCAGCAGGGCAUCUCUGAGAGAGAUGCC	1.03
UACGUGGGUGGUUUUCCCCUGAUAGUGCUAAGGGGGCCUGGAAGUUUGGACUGGGCAGAGCUCAACACAGCGUGGCAAAGUGGCUGUGGCUAGACUGCCUCUCUGGAUUCCUCGUCACUCUGCAGGGCAUCUCUGAGAGAAAUGCC	0.99
UACGUGGGUGGUUUUCCCCUGAUAGUGCUAAGGGGGCCUGGAAGUUUGGACUGGGCAGAGCUCAACACAGCGUGGCAAAGUGGCUGUGGCUAGACUGCCUCUCUGGAUUCCUCGUCACUCGGCAGGGCAUCUCUGAGAGAAAUGCC	1.14
UACGUGGGUGGUUUUCCCCUGAUAGUGCUAAGGGGGCCUGGAAGUUUGGACUGGGCAGAUCUCAACACAGCGUGGCAAAGUGGCUGUGGCUAGACUGCCUCUCUGGAUUCCUCGUCACUCAGCAGGGCAUCUCUGAGAGAAAUGCC	0.19
UACGUGGGUGGUUUUCCCCUGAUAGUGCUAAGGGGGCCUGGAAGUUUGGACUGGGCGGAGCUCAACACAGCGUGGCAAAGUGGCUGUGGCUAGACUGCCUCUCUGGAUUCCUCGUCACUCAGCAGGGCAUCUCUGAGAGAAAUGCC	0.64
UACGUGGGUGGUUUUCCCCUGAUAGUGCUAAGGGGGCCUGGAAGUUUGGACUGGGCUGAGCUCAACACAGCGUGGCAAAGUGGCUGUGGCUAGACUGCCUCUCUGGAUUCCUCGUCACUCAGCAGGGCAUCUCUGAGAGAAAUGCC	0.42
UACGUGGGUGGUUUUCCCCUGAUAGUGCUAAGGGGGCCUGGAAGUUUGGACUGGGCAGAGCUCAACACAGCGUGGCAAAGUGGCUGUGGCUAGACUGCCUCUCUGGAUUCCUCGUCACUCAGCGGGGCAUCUCUGAGAGAAAUGCC	0.38
UACGUGGGUGGUUUUCCCCUGAUAGUGCUAAGGGGGCCUGGGAGUUUGGACUGGGCAGAGCUCAACACAGCGUGGCAAAGUGGCUGUGGCUAGACUGCCUCUCUGGAUUCCUCGUCACUCAGCAGGGCAUCUCUGAGAGAAAUGCC	1.15
UACGUGGGUGGUUUUCCCCUGAUAGUGCUAAGGGGGCCUGGUAGUUUGGACUGGGCAGAGCUCAACACAGCGUGGCAAAGUGGCUGUGGCUAGACUGCCUCUCUGGAUUCCUCGUCACUCAGCAGGGCAUCUCUGAGAGAAAUGCC	0.82
UACGUGGGUGGUUUUCCCCUGAUAGUGCUAAGGGGGCCUGGAGGUUUGGACUGGGCAGAGCUCAACACAGCGUGGCAAAGUGGCUGUGGCUAGACUGCCUCUCUGGAUUCCUCGUCACUCAGCAGGGCAUCUCUGAGAGAAAUGCC	1.35
UACGUGGGUGGUUUUCCCCUGUUAGUGCUAAGGGGGCCUGGAAGUUUGGACUGGGCAGAGCUCAACACAGCGUGGCAAAGUGGCUGUGGCUAGACUGCCUCUCUGGAUUCCUCGUCACUCAGCAGGGCAUCUCUGAGAGAAAUGCC	1.11
UACGUCGGUGGUUUUCCCCUGAUAGUGCUAAGGGGGCCUGGAAGUUUGGACUGGGCAGAGCUCAACACAGCGUGGCAAAGUGGCUGUGGCUAGACUGCCCCUCUGGAUUCCUCGUCACUCAGCAGGGCAUCUCUGAGAGAAAUGCC	0.66
UACGUCGGUGGUUUUCCCCUGAUAGUGCUAAGGGGGCCUGGAAGUUUGGACUGGGCAGAGCUCAACACAGCGUGGCAAAGUGGCUGUGGCUAGACUGCCUCUCUGGAUUCCUCGUCACUCAGCAGGGCAUCUCCGAGAGAAAUGCC	0.61
UACGUGGGUGGUUUUCCCCUGAUGGUGCUAAGGGGGCCUGGAAGUUUGGACUGGGCAGAGCUCAACACAGCGUGGCAAAGUGGCUGUGGCUAGACUGCCUCUCUGGAUUCCUCGUCACUCAGCAGGGCAUCUCUGAGAGAAAUGCC	1.21
UACGUGGGUGGUUUUCCCCUGAUUGUGCUAAGGGGGCCUGGAAGUUUGGACUGGGCAGAGCUCAACACAGCGUGGCAAAGUGGCUGUGGCUAGACUGCCUCUCUGGAUUCCUCGUCACUCAGCAGGGCAUCUCUGAGAGAAAUGCC	1.21
UACGUGGGUGGUUUUCCCCUGAUAGUGCUAAGGGGGCCUGGAAGUUUGGACUGGGCAGGGCUCAACACAGCGUGGCAAAGUGGCUGUGGCUAGACUGCCUCUCUGGAUUCCUCGUCACUCAGCAGGGCAUCUCUGAGAGAAAUGCC	0.1
UACGUCGGUGGUUUUCCCCUGAUAGUGCUAAGGGGGCCUGGAAGUUUGGACUGGGCAGAGCUCAACACAGCGUGGCAAAGUGGCUGUGGCUAGACUGCCUCUCUGGAUUCCUUGUCACUCAGCAGGGCAUCUCUGAGAGAAAUGCC	1.35
UACGUGGGUGGUUUUCCCCUGAUAGUGCUAACGGGGCCUGGAAGUUUGGACUGGGCAGAGCUCAACACAGCGUGGCAAAGUGGCUGUGGCUAGACUGCCUCUCUGGAUUCCUCGUCACUCAGCAGGGCAUCUCUGAGAGAAAUGCC	0.65
UACGUGGGUGGUUUUCCCCUGAUAGUGCUAAGGGGGCCUGGAAGUUUGGACUGGUCAGAGCUCAACACAGCGUGGCAAAGUGGCUGUGGCUAGACUGCCUCUCUGGAUUCCUCGUCACUCAGCAGGGCAUCUCUGAGAGAAAUGCC	0.41

Variant	self-cleavage
UACGUGGGUGGUUUUCCUCUGAUAGUGCUAAGGGGGCCUGGAAGUUUGGACUGGGCAGAGCUCAACACAGCGUGGCAAAGUGGCUGUGGCUAGACUGCCUCUCUGGAUUCCUCGUCACUCAGCAGGGCAUCUCUGAGAGAAAUGCC	0.59
UACGUGGGUGGUUUUCCCCUGAUAGUGCUAAGGGGGCCUGGAAGUUUGGACUGGGCAGAGCUCAACACAGCGUGGCAAAGUGGCUGUGGCUAGACUGCCUCUCUGGAUUCCUCGUCACUCAGCAGGGCAUCUCUGAGGGAAAUGCC	1.11
UACGUGGGUGGUUUUCCCCUGAUAGUGCUAAGGGGGCCUGGAAGUUUGGACUGGGCAGAGCUCAACACAGCGUGGCAAAGUGGCUGUGGCUAGACUGCCUCUCUGGAUUCCUCGUCACUCAGCAGGGCAUCUCUGAGUGAAAUGCC	0.67
UACGUGGGUGGUUUUCCCCUGAUAGUGCUAAGGGGGCCUGGAAGUUUGGACUGGGCAGAGCUCAACACAGCGUGGCAAAGUGGCUGUGGCUAGACUGCCUCUCUGGAUUCUUCGUCACUCAGCAGGGCAUCUCUGAGAGAAAUGCC	1
UACGUGGGUGGUUUUCCCCUGAUAGUGCUAAGGGGGCCUGGAAGUUUGGACUGGGCAGAGCUCAACACAGCGUGGCAAAGUGGCUGUGGCUAGACUGUCUCUCUGGAUUCCUCGUCACUCAGCAGGGCAUCUCUGAGAGAAAUGCC	0.42
UACGUGGGUGCUUUUCCCCUGAUAGUGCUAAGGGGGCCUGGAAGUUUGGACUGGGCAGAGCUCAACACAGCGUGGCAAAGUGGCUGUGGCUAGACUGCCUCUCUGGAUUCCUCGUCACUCAGCAGGGCAUCUCUGAGAGAAAUGCC	0.31
UACGUGGGUGAUUUUCCCCUGAUAGUGCUAAGGGGGCCUGGAAGUUUGGACUGGGCAGAGCUCAACACAGCGUGGCAAAGUGGCUGUGGCUAGACUGCCUCUCUGGAUUCCUCGUCACUCAGCAGGGCAUCUCUGAGAGAAAUGCC	2.36
UACGUGGGUGGUUUUCCCCUGAUAGUGCUAAGGGGGCCUGGAAGUUUGGACUGGGCAGAGCUCAACACAGCGUGGCAAAGUGGCUGUGGCUAGACUGCCUCUCUGGAUUCCUCGUCACUCAGCAGGGCAUCUCUGGGAGAAAUGCC	1.17
UACGUGGGUGGUUUUCCCCUGAUAGUGCUAAGGGGGCCUGGAAGUUUGGACUGGGCAGAGCUCAACACAGCGUGGCAAAGUGGCUGUGGCUAGUCUGCCUCUCUGGAUUCCUCGUCACUCAGCAGGGCAUCUCUGAGAGAAAUGCC	0.3
UACGUGGGUGGUUUUCCCCUGAUAGUGCUAAGGGGGCCUGGAAGUUUGGACUGGGCAGAGCUCAACACAGCGUGGCAAAGUGGCUGUGGCUAGGCUGCCUCUCUGGAUUCCUCGUCACUCAGCAGGGCAUCUCUGAGAGAAAUGCC	0.31
UACGUGGGUGGUUUUCCCCUGAUAGUGCUAAGGGGGCCUGGAAGUUUGGACUGGGCAGAGCUCUACACAGCGUGGCAAAGUGGCUGUGGCUAGACUGCCUCUCUGGAUUCCUCGUCACUCAGCAGGGCAUCUCUGAGAGAAAUGCC	0.87
UACGUGGGUGGUUUUCCCCUGAUAGUGCUAAGGGGGCCUGGAAGUUUGGACUGGGCAGAGCUCAAUACAGCGUGGCAAAGUGGCUGUGGCUAGACUGCCUCUCUGGAUUCCUCGUCACUCAGCAGGGCAUCUCUGAGAGAAAUGCC	0.15
UACGUGAGUGGUUUUCCCCUGAUAGUGCUAAGGGGGCCUGGAAGUUUGGACUGGGCAGAGCUCAACACAGCGUGGCAAAGUGGCUGUGGCUAGACUGCCUCUCUGGAUUCCUCGUCACUCAGCAGGGCAUCUCUGAGAGAAAUGCC	0.43
UACGUGUGUGGUUUUCCCCUGAUAGUGCUAAGGGGGCCUGGAAGUUUGGACUGGGCAGAGCUCAACACAGCGUGGCAAAGUGGCUGUGGCUAGACUGCCUCUCUGGAUUCCUCGUCACUCAGCAGGGCAUCUCUGAGAGAAAUGCC	1.33
UACGUGGGUGGUUUUCCCCUGAUAGUGCUAAGGGGGCCUAGAAGUUUGGACUGGGCAGAGCUCAACACAGCGUGGCAAAGUGGCUGUGGCUAGACUGCCUCUCUGGAUUCCUCGUCACUCAGCAGGGCAUCUCUGAGAGAAAUGCC	0.84
UACGUGGGUGGUUUUCCCCUGAUAGUGCUAAGGGGGCCUGGAAGUUUGGACUGGGCAGAGCUCAACACAGCGUGGCGAAGUGGCUGUGGCUAGACUGCCUCUCUGGAUUCCUCGUCACUCAGCAGGGCAUCUCUGAGAGAAAUGCC	1.18
UACGUGGGUGGUUUUCCCCUGAUAGUGCUAAGGGGGCCUGGAAGUUUGGACUGGGCAGAGCUCAACACAGCGUGGCUAAGUGGCUGUGGCUAGACUGCCUCUCUGGAUUCCUCGUCACUCAGCAGGGCAUCUCUGAGAGAAAUGCC	0.92
UACGUGGGUGGUUUUCCCCUGAUAGUGCUAAGGGGGCCUGGAAGUUUGGACUGGGCAGAGCUCAACACAGCGUGGCAAAGUGGCUGUGGCUAGACUGCCUCUCUGGAUUCCUCGUCACUCAGCAGGGCAUCUCUGAGAGAAAUGUC	1.64
UACGUGGGUGGUUUUCCCCUGAUAGUGCUGAGGGGGCCUGGAAGUUUGGACUGGGCAGAGCUCAACACAGCGUGGCAAAGUGGCUGUGGCUAGACUGCCUCUCUGGAUUCCUCGUCACUCAGCAGGGCAUCUCUGAGAGAAAUGCC	1.14
